Test results: publication PMC5245964 (eLife, 2017)

Molecular target: T1, Mis18α:Mis18β complex (insect-cell-expressed) (human, UniProt Q9NYP9 1-233; O43482 1-229)
T1 construct: Mis18α, human, the CDS of Mis18α; codon-optimized cDNA (GeneArt); Mis18β, human, the CDS of Mis18β; pre-formed complex used as one partner in pull-downs and reconstitution; also called Mis18α:Mis18β hexamer; source: Tnao38 insect cells, baculovirus co-expression, purified (Ni resin, His-TEVp cleavage, SEC); not shown: His6, N-terminal, cleaved; copies: 4 + 2
Assay: pull-down; MBP-tagged M18BP1 variant held on amylose resin, Mis18α:Mis18β in solution; proteins 3 μM, buffer HST300 (30 mM HEPES pH 7.5, 300 mM NaCl, 1 mM TCEP), 4°C, 30 min; CBB-stained Tricine–SDS-PAGE
Details: both partners purified

T1 sequence (Q9NYP9 whole entry, chain 1 of 2): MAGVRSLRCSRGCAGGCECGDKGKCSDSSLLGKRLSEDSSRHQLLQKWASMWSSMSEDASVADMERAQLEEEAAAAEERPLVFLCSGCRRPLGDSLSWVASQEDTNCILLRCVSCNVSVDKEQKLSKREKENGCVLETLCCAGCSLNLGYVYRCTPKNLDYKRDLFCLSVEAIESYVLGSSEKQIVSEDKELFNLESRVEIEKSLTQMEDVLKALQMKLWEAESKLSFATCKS
T1 sequence (O43482 whole entry, chain 2 of 2): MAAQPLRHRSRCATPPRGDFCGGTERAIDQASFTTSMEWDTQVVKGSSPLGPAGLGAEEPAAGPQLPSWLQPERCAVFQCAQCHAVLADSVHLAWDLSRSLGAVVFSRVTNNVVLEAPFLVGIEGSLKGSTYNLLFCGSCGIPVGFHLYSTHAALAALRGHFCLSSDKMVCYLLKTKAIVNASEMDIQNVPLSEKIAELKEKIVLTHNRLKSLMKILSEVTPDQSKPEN

B1: MBP-M18BP1^61–140/S110A-8His (domain or fragment, human, UniProt Q6P0N0 61-140, looked up)
chain: NQFLKMTTFNNKNIFQSTMLTEATTSNSSLDISAIKPNKDGLKNKANYEAPGKIFLRMKEKVLRDKQEQPSRNSSLLEPQ
notes: M18BP1 (KNL2), human, residues 61-140; also tested after CDK1:Cyclin B1 treatment; Ser110 is the only major site of 61-140, so no separate molecule was made; source: E. coli BL21-CodonPlus(DE3)-RIL, purified (Ni resin); not shown: MBP, N-terminal, kept; His8, C-terminal, kept
binding result: binds
